In patent US20180319883A1 (Stanford University, published 2018):

How the values were obtained:
[1] = target: T1, human SIRPα, endogenous, on THP-1 cells (human, UniProt P78324 31-504); experiment: flow cytometry competition on THP-1 cells against 100 nM fluorescent CD47/streptavidin tetramers
T1 construct: whole, on cells; also called SIRP-alpha

[2] = target: T1, human SIRPα, endogenous, on THP-1 cells; experiment: flow cytometry competition on THP-1 cells against CD47 tetramers

B1: KWAR23, monoclonal CD47-blocking anti-human SIRPα antibody (purified from hybridoma supernatant) (antibody, V domains shown)
VH: EVQLQQSGAELVKPGASVKLSCTASGFNIKDYYIHWVQQRTEQGLEWIGRIDPEDGETKYAPKFQDKATITADTSSNTAYLHLSSLTSEDTAVYYCARWGAYWGQGTLVTVSS
VL: QIVLTQSPAIMSASPGEKVTLTCSASSSVSSSYLYWYQQKPGSSPKLWIYSTSNLASGVPARFSGSGSGTSYSLTISSMEAEDAASYFCHQWSSYPRTFGAGTKLELK
notes: Mouse hybridoma antibody purified by protein G chromatography; also called KWAR23 antibody; intact KWAR23
B1 showed an IC50 [1] of about 0.27 nM.

B2: KWAR23 scFv LH (N-terminal light chain), monomer expressed in E. coli (scFv)
scFv: QIVLTQSPAIMSASPGEKVTLTCSASSSVSSSYLYWYQQKPGSSPKLWIYSTSNLASGVPARFSGSGSGTSYSLTISSMEAEDAASYFCHQWSSYPRTFGAGTKLELKGTTAASGSSGGSSSGAEVQLQQSGAELVKPGASVKLSCTASGFNIKDYYIHWVQQRTEQGLEWIGRIDPEDGETKYAPKFQDKATITADTSSNTAYLHLSSLTSEDTAVYYCARWGAYWGQGTLVTVS
notes: also called LH scFv; LH monomer
B2 showed an IC50 [2] of about 35 nM.

B3: KWAR23 scFv HL (N-terminal heavy chain), monomer expressed in E. coli (scFv)
scFv: EVQLQQSGAELVKPGASVKLSCTASGFNIKDYYIHWVQQRTEQGLEWIGRIDPEDGETKYAPKFQDKATITADTSSNTAYLHLSSLTSEDTAVYYCARWGAYWGQGTLVTVSGGGGSGGGGSGGGGSQIVLTQSPAIMSASPGEKVTLTCSASSSVSSSYLYWYQQKPGSSPKLWIYSTSNLASGVPARFSGSGSGTSYSLTISSMEAEDAASYFCHQWSSYPRTFGAGTKLELK
notes: also called HL scFv; HL monomer
B3 gave an IC50 [2] of about 35 nM.
